Laboratory results: EP4806467A2

Experiments:
[1] = biological target: ADAM9 on human tumour cells (LS174T, HepG2, Calu-3) (human) (UniProt Q13443); assay: flow cytometry on LS174T cells, negative control, 250 nM
[2] = biological target: ADAM9 on human tumour cells (LS174T, HepG2, Calu-3) (human) (UniProt Q13443); assay: flow cytometry on HepG2 cells, negative control, 250 nM
[3] = biological target: ADAM9 on human tumour cells (LS174T, HepG2, Calu-3) (human) (UniProt Q13443); assay: flow cytometry on HepG2 cells, negative control, 0.000238 nM
[4] = biological target: ADAM9 on human tumour cells (LS174T, HepG2, Calu-3) (human) (UniProt Q13443); assay: flow cytometry on LS174T cells, negative control, 62.5 nM
[5] = biological target: ADAM9 on human tumour cells (LS174T, HepG2, Calu-3) (human) (UniProt Q13443); assay: flow cytometry on HepG2 cells, negative control, 0.003815 nM
[6] = biological target: ADAM9 on human tumour cells (LS174T, HepG2, Calu-3) (human) (UniProt Q13443); assay: flow cytometry on LS174T cells, negative control, 1000 nM
[7] = biological target: ADAM9 on human tumour cells (LS174T, HepG2, Calu-3) (human) (UniProt Q13443); assay: flow cytometry on HepG2 cells, negative control, 3.906250 nM
[8] = biological target: ADAM9 on human tumour cells (LS174T, HepG2, Calu-3) (human) (UniProt Q13443); assay: flow cytometry on LS174T cells, negative control, 0.976563 nM
[9] = biological target: ADAM9 on human tumour cells (LS174T, HepG2, Calu-3) (human) (UniProt Q13443); assay: flow cytometry on HepG2 cells, negative control, 62.5 nM
[10] = biological target: ADAM9 on human tumour cells (LS174T, HepG2, Calu-3) (human) (UniProt Q13443); assay: flow cytometry on LS174T cells, negative control, 0.015259 nM
[11] = biological target: ADAM9 on human tumour cells (LS174T, HepG2, Calu-3) (human) (UniProt Q13443); assay: flow cytometry on HepG2 cells, negative control, 0.061035 nM
[12] = biological target: ADAM9 on human tumour cells (LS174T, HepG2, Calu-3) (human) (UniProt Q13443); assay: flow cytometry on LS174T cells, negative control, 3.906250 nM
[13] = biological target: ADAM9 on human tumour cells (LS174T, HepG2, Calu-3) (human) (UniProt Q13443); assay: flow cytometry on HepG2 cells, negative control, 15.625 nM
[14] = biological target: ADAM9 on human tumour cells (LS174T, HepG2, Calu-3) (human) (UniProt Q13443); assay: flow cytometry on HepG2 cells, negative control, 0.244141 nM
[15] = biological target: ADAM9 on human tumour cells (LS174T, HepG2, Calu-3) (human) (UniProt Q13443); assay: flow cytometry on HepG2 cells, negative control, 0.976563 nM
[16] = biological target: ADAM9 on human tumour cells (LS174T, HepG2, Calu-3) (human) (UniProt Q13443); assay: flow cytometry on LS174T cells, negative control, 0.003815 nM
[17] = biological target: ADAM9 on human tumour cells (LS174T, HepG2, Calu-3) (human) (UniProt Q13443); assay: flow cytometry on LS174T cells, negative control, 0.000954 nM
[18] = biological target: ADAM9 on human tumour cells (LS174T, HepG2, Calu-3) (human) (UniProt Q13443); assay: flow cytometry on HepG2 cells, negative control, 0.015259 nM
[19] = biological target: ADAM9 on human tumour cells (LS174T, HepG2, Calu-3) (human) (UniProt Q13443); assay: flow cytometry on LS174T cells, negative control, 0.244141 nM
[20] = biological target: ADAM9 on human tumour cells (LS174T, HepG2, Calu-3) (human) (UniProt Q13443); assay: flow cytometry on HepG2 cells, negative control, 1000 nM
[21] = biological target: ADAM9 on human tumour cells (LS174T, HepG2, Calu-3) (human) (UniProt Q13443); assay: flow cytometry on HepG2 cells, negative control, 0.000954 nM
[22] = biological target: ADAM9 on human tumour cells (LS174T, HepG2, Calu-3) (human) (UniProt Q13443); assay: flow cytometry on LS174T cells, negative control, 15.625 nM
[23] = biological target: ADAM9 on human tumour cells (LS174T, HepG2, Calu-3) (human) (UniProt Q13443); assay: flow cytometry on LS174T cells, negative control, 0.061035 nM
[24] = biological target: ADAM9 on human tumour cells (LS174T, HepG2, Calu-3) (human) (UniProt Q13443); assay: flow cytometry on HepG2 cells, 0.003815 nM
[25] = biological target: ADAM9 on human tumour cells (LS174T, HepG2, Calu-3) (human) (UniProt Q13443); assay: flow cytometry on HepG2 cells, 62.5 nM
[26] = biological target: ADAM9 on human tumour cells (LS174T, HepG2, Calu-3) (human) (UniProt Q13443); assay: flow cytometry on HepG2 cells, 1000 nM
[27] = biological target: ADAM9 on human tumour cells (LS174T, HepG2, Calu-3) (human) (UniProt Q13443); assay: flow cytometry on HepG2 cells, 0.061035 nM
[28] = biological target: ADAM9 on human tumour cells (LS174T, HepG2, Calu-3) (human) (UniProt Q13443); assay: flow cytometry on HepG2 cells, 0.000954 nM
[29] = biological target: ADAM9 on human tumour cells (LS174T, HepG2, Calu-3) (human) (UniProt Q13443); assay: flow cytometry on HepG2 cells, 0.244141 nM
[30] = biological target: ADAM9 on human tumour cells (LS174T, HepG2, Calu-3) (human) (UniProt Q13443); assay: flow cytometry on HepG2 cells, 0.976563 nM
[31] = biological target: ADAM9 on human tumour cells (LS174T, HepG2, Calu-3) (human) (UniProt Q13443); assay: flow cytometry on HepG2 cells, 0.000238 nM
[32] = biological target: ADAM9 on human tumour cells (LS174T, HepG2, Calu-3) (human) (UniProt Q13443); assay: flow cytometry on HepG2 cells, 3.906250 nM
[33] = biological target: ADAM9 on human tumour cells (LS174T, HepG2, Calu-3) (human) (UniProt Q13443); assay: flow cytometry on HepG2 cells, 15.625 nM
[34] = biological target: ADAM9 on human tumour cells (LS174T, HepG2, Calu-3) (human) (UniProt Q13443); assay: flow cytometry on HepG2 cells, 0.015259 nM
[35] = biological target: ADAM9 on human tumour cells (LS174T, HepG2, Calu-3) (human) (UniProt Q13443); assay: flow cytometry on HepG2 cells, 250 nM
[36] = biological target: ADAM9 on human tumour cells (LS174T, HepG2, Calu-3) (human) (UniProt Q13443); assay: flow cytometry on LS174T cells, 0.015259 nM
[37] = biological target: ADAM9 on human tumour cells (LS174T, HepG2, Calu-3) (human) (UniProt Q13443); assay: flow cytometry on LS174T cells, 1000 nM
[38] = biological target: ADAM9 on human tumour cells (LS174T, HepG2, Calu-3) (human) (UniProt Q13443); assay: flow cytometry on LS174T cells, 0.976563 nM
[39] = biological target: ADAM9 on human tumour cells (LS174T, HepG2, Calu-3) (human) (UniProt Q13443); assay: flow cytometry on LS174T cells, 250 nM
[40] = biological target: ADAM9 on human tumour cells (LS174T, HepG2, Calu-3) (human) (UniProt Q13443); assay: flow cytometry on LS174T cells, 0.003815 nM
[41] = biological target: ADAM9 on human tumour cells (LS174T, HepG2, Calu-3) (human) (UniProt Q13443); assay: flow cytometry on LS174T cells, 0.000954 nM
[42] = biological target: ADAM9 on human tumour cells (LS174T, HepG2, Calu-3) (human) (UniProt Q13443); assay: flow cytometry on LS174T cells, 3.906250 nM
[43] = biological target: ADAM9 on human tumour cells (LS174T, HepG2, Calu-3) (human) (UniProt Q13443); assay: flow cytometry on LS174T cells, 15.625 nM
[44] = biological target: ADAM9 on human tumour cells (LS174T, HepG2, Calu-3) (human) (UniProt Q13443); assay: flow cytometry on LS174T cells, 62.5 nM
[45] = biological target: ADAM9 on human tumour cells (LS174T, HepG2, Calu-3) (human) (UniProt Q13443); assay: flow cytometry on LS174T cells, 0.244141 nM
[46] = biological target: ADAM9 on human tumour cells (LS174T, HepG2, Calu-3) (human) (UniProt Q13443); assay: flow cytometry on LS174T cells, 0.061035 nM

Chain of ADAM9 on human tumour cells (LS174T, HepG2, Calu-3) (human) (Q13443 29-819): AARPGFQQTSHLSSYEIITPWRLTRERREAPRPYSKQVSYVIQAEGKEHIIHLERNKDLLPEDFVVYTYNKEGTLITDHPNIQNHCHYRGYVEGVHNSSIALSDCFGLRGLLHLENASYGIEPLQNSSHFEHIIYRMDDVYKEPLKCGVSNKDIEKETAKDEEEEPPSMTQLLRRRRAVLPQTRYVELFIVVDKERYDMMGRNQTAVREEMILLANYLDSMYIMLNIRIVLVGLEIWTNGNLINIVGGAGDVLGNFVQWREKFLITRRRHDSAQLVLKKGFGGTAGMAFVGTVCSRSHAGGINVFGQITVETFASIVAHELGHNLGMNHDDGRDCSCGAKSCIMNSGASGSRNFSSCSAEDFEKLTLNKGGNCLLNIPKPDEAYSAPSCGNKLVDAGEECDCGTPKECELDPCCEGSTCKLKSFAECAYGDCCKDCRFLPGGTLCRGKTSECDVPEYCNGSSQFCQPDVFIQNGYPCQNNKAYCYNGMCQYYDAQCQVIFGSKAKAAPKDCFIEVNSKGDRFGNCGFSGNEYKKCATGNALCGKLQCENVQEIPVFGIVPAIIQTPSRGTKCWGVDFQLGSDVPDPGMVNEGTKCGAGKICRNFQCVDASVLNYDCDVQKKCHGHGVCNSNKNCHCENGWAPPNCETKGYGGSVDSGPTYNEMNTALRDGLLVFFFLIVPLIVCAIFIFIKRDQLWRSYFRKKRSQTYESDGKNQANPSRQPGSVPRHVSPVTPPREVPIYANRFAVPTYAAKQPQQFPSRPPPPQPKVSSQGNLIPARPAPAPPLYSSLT

Work on “anti-HIV human IgG antibody (iso-IgG1, produced by WuXi AppTec)” yielded a Mean fluorescence intensity [1] of 269 MFI, a Mean fluorescence intensity (MFI) [2] of 389 MFI and a Mean fluorescence intensity (MFI) [3] of 361 MFI. It also gave a Mean fluorescence intensity [4] of 229 MFI, a Mean fluorescence intensity (MFI) [5] of 349 MFI and a Mean fluorescence intensity [6] of 368 MFI. It also gave a Mean fluorescence intensity (MFI) [7] of 361 MFI, a Mean fluorescence intensity [8] of 212 MFI and a Mean fluorescence intensity (MFI) [9] of 386 MFI. It also gave a Mean fluorescence intensity [10] of 213 MFI, a Mean fluorescence intensity (MFI) [11] of 377 MFI and a Mean fluorescence intensity [12] of 203 MFI. For the same molecule, the Mean fluorescence intensity (MFI) [13] was 364 MFI, the Mean fluorescence intensity (MFI) [14] was 363 MFI and the Mean fluorescence intensity (MFI) [15] was 360 MFI. For the same molecule, the Mean fluorescence intensity [16] was 254 MFI, the Mean fluorescence intensity [17] was 220 MFI and the Mean fluorescence intensity (MFI) [18] was 371 MFI. It also gave a Mean fluorescence intensity [19] of 208 MFI, a Mean fluorescence intensity (MFI) [20] of 690 MFI and a Mean fluorescence intensity (MFI) [21] of 365 MFI. It also gave a Mean fluorescence intensity [22] of 209 MFI and a Mean fluorescence intensity [23] of 202 MFI.

B1: Ab16-X1 (antibody, human IgG1, kappa, V domains shown)
VH: QVQLQQPGTEVVKPGASVKLSCKASGFTFPLYWMHWVRQRPGRGLEWIGRIIPIFGHTKYNEKFKNKATLTADESSSTAYMELRSLTSDDSAVYYCARGGYYYYPREGFLDYWGQGTSVTVSS
VL: DIVMTQSPASLSVSPGERASISCRSSQSVDYSGDSYMNWYQQKPGQSPRLLIYAASDRESGVPDRFSGSGSGTDFTLKISRVEEEDAGTYYCQQSREDPFTFGQGTKVDIKR
modifications: linker-payload X1 (camptothecin derivative) conjugated after TCEP reduction; DAR p = 7.8 for the whole antibody; positions not given
B1 showed a Mean fluorescence intensity (MFI) [24] of 396 MFI, a Mean fluorescence intensity (MFI) [25] of 3290 MFI and a Mean fluorescence intensity (MFI) [26] of 17400 MFI. The Mean fluorescence intensity (MFI) [27] was 623 MFI, the Mean fluorescence intensity (MFI) [28] was 376 MFI and the Mean fluorescence intensity (MFI) [29] was 1090 MFI. It also gave a Mean fluorescence intensity (MFI) [30] of 1790 MFI, a Mean fluorescence intensity (MFI) [31] of 370 MFI and a Mean fluorescence intensity (MFI) [32] of 1780 MFI. For the same molecule, the Mean fluorescence intensity (MFI) [33] was 2960 MFI, the Mean fluorescence intensity (MFI) [34] was 451 MFI and the Mean fluorescence intensity (MFI) [35] was 16600 MFI.

B2: Ab16-X2 (antibody, human IgG1, kappa, V domains shown)
VH: QVQLQQPGTEVVKPGASVKLSCKASGFTFPLYWMHWVRQRPGRGLEWIGRIIPIFGHTKYNEKFKNKATLTADESSSTAYMELRSLTSDDSAVYYCARGGYYYYPREGFLDYWGQGTSVTVSS
VL: DIVMTQSPASLSVSPGERASISCRSSQSVDYSGDSYMNWYQQKPGQSPRLLIYAASDRESGVPDRFSGSGSGTDFTLKISRVEEEDAGTYYCQQSREDPFTFGQGTKVDIKR
modifications: linker-payload X2 (camptothecin derivative) conjugated after TCEP reduction; DAR p = 7.9 for the whole antibody; positions not given
B2 was tested, and the Mean fluorescence intensity [36] was 268 MFI, the Mean fluorescence intensity [37] was 1130 MFI and the Mean fluorescence intensity [38] was 1960 MFI. The Mean fluorescence intensity [39] was 2130 MFI, the Mean fluorescence intensity [40] was 219 MFI and the Mean fluorescence intensity [41] was 223 MFI. For the same molecule, the Mean fluorescence intensity [42] was 2380 MFI, the Mean fluorescence intensity [43] was 2400 MFI and the Mean fluorescence intensity [44] was 2160 MFI. For the same molecule, the Mean fluorescence intensity [45] was 954 MFI and the Mean fluorescence intensity [46] was 447 MFI.
